Test results from patent publication EP4269437A1.
Where a chain is given by its changes, count along the chain named. “And” between values parts separate entries of the source, which are not always exact repeats. Equal values may be shown once. Values belong to the binder of their own block, whether it stands above or below them.

Tests used:
PD-1 [1] = molecular target: PD-1 (UniProt Q15116); assay: ELISA, TG1 supernatant on coated PD-1, anti-c-myc HRP
Target sequence in this assay (Q15116 25-170 limits assumed): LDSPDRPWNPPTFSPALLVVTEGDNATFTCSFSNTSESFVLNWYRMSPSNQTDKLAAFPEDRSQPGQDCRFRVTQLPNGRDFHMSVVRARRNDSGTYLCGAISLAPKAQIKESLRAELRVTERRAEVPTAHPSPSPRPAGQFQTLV

PD-1 [2] = molecular target: PD-1 (UniProt Q15116); assay: blocking ELISA, clone supernatant, competitor PD-L1.hFc detected with anti-human Fc HRP
Target sequence in this assay (Q15116 25-170 limits assumed): as above

[3] = molecular target: PD-1 (CD28 family protein, ACROBiosystems) (UniProt Q15116); assay: ELISA on coated protein, anti-human Fc HRP
PD-1 (CD28 family protein, ACROBiosystems), sequence (Q15116 25-167 limits assumed): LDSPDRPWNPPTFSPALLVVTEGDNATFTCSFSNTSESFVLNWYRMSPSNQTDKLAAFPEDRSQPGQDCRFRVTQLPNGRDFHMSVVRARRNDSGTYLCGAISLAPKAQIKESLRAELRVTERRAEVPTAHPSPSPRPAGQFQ

PD-1 [4] = molecular target: PD-1 (UniProt Q15116); assay: ELISA on coated protein, anti-human Fc HRP
Target sequence in this assay (Q15116 25-167 limits assumed): as above

[5] = molecular target: cynomolgus monkey PD-1 protein (cynomolgus monkey) (UniProt B0LAJ3); assay: ELISA on coated protein, anti-human Fc HRP
cynomolgus monkey PD-1 protein (cynomolgus monkey), sequence (B0LAJ3 entry or part of it limits assumed): as the sequence (Q15116 25-170 limits assumed) above, with D2E, P10A, V19L, T35A, Q75R, T144A counted along it

- OD450, clone binding with PD-1 (PD-1 [1]): 3.13 OD450
- OD450, PD-L1 binding with PD-1 (PD-1 [2]): 2.24 OD450
B1: NB195 (VHH)
VHH: EVQVVESGGGLVQAGGSLRLSCAASGDTILISAIGWYRQAPGKVRELVAAITNSGVTYYTDSVKGRFTISRDNAKNTVYLQMDSLKPEDTAVYYCNAGGPPPGGLGYDESDYWGPGTHVTVSS

- OD450, clone binding with PD-1 (PD-1 [1]): 2.38 OD450
- OD450, PD-L1 binding with PD-1 (PD-1 [2]): 2.21 OD450
B2: NB220 (VHH)
VHH: QVQLQESGGGLLQAGDSLRLSCIVSGRTFSSYAIGWFRQAPGKEREFVAGINWSGRSQYYSESVKDRFTVSIDNAKNTVYLQMNSLKPEDTAVYYCAAERHLGVPTVRDDEYDDWGQGTQVTVSS

- OD450, clone binding with PD-1 (PD-1 [1]): 3.22 OD450
- OD450, PD-L1 binding with PD-1 (PD-1 [2]): 2.04 OD450
B3: NB209 (VHH)
VHH: EVQVVESGGGLVQTGGSLRLSCAASGDTALFSAVGWYRQAPGKERELVAALTNTGITYYADSVEGRFTIFRDNAKNTVYLQMNSLKPEDTAVYYCNAGAPPPGGLGYDESDYWGQGTQVTVSS

- OD450, clone binding with PD-1 (PD-1 [1]): 3.29 OD450
- OD450, PD-L1 binding with PD-1 (PD-1 [2]): 1.27 OD450
B4: NB215 (VHH)
VHH: EVQVVESGGGLVQAGDSLRLSCAASGGTISGYEMGWFRQAPGKEREFVAGISRNGRSTGYSDSAKDRFTISRDNAKNTVYLQMNSLKPEDTAVYYCAAGLKADYGDSYVDTSTRNYNYWGQGTQVTVSS

- OD450, clone binding with PD-1 (PD-1 [1]): 2.97 OD450
- OD450, PD-L1 binding with PD-1 (PD-1 [2]): 2.34 OD450
B5: NB189 (VHH)
VHH: QVKLEESGGGLVQAGGSLRLSCTASGGTFNSYAMGWFRQAPGKERESVAAINLSRGNTYYADSVKGRFTISRDNAKNTVYLQMNSLKPEDTAVYHCGVDRRQYGLGIPPLADHWGQGTQVTVSS

- OD450, clone binding with PD-1 (PD-1 [1]): 2.25 OD450
- OD450, PD-L1 binding with PD-1 (PD-1 [2]): 2.2 OD450
B6: NB205 (VHH)
VHH: EVQLVESGGGLVQVGDSLRLSCAASGRTFSSVPMGWFRQAPGNQREFVAAISKSGGSAGYADSVKDRSTISRDNAKNTIYLQMNSLKPEDTAVYYCAASSFDFCSTHGCYDYWGQGTQVTISS

- OD450, clone binding with PD-1 (PD-1 [1]): 2.75 OD450
- OD450, PD-L1 binding with PD-1 (PD-1 [2]): 2.45 OD450
B7: NB216 (VHH)
VHH: B6 VHH with E1Q, Q13R, V14A, R19T, F101Y

- OD450, clone binding with PD-1 (PD-1 [1]): 3.39 OD450
- OD450, PD-L1 binding with PD-1 (PD-1 [2]): 2.49 OD450
B8: NB196 (VHH)
VHH: QVQLVETGGGLVQAGGSLRLSCTASGDTNLFSAMGWHRQAPGKERELVAAITNSGMTYYADVVKGRFTLSRDNAKNTVYLQMNSLKPEDTAVYYCNAGAPPPGGFGYDESDYWGQGTQVTVSS

- ELISA (OD) [3]: 2.03 OD and 1.96 OD and 2.27 OD
- ELISA (OD) (PD-1 [4]): 2.22 OD and 1.95 OD and 2.11 OD
- ELISA (OD) [5]: 2.23 OD and 2.17 OD and 2.1 OD
- OD450, clone binding with PD-1 (PD-1 [1]): 2.83 OD450
- OD450, PD-L1 binding with PD-1 (PD-1 [2]): 0.152 OD450
B9: NB194 (Fc fusion, not shown: a dimerising Fc or GST)
heavy: QVQLVETGGGLVRAGGSLRLSCTASGRPFSIYDMGWFRQAPDKERESVAVINLSRGDTYYADSVKGRFTISLDSAKNTVYLQMNSLKPEDTAVYSCGVDRRQYGLGIPPLADHWGQGTQVTVSS

- OD450, clone binding with PD-1 (PD-1 [1]): 2.97 OD450
- OD450, PD-L1 binding with PD-1 (PD-1 [2]): 0.794 OD450
B10: NB173 (VHH)
VHH: QVQLQESGGGLVQAGGSLRLSCAASGRSFNSYAMGWFRQAPGKEREFVAAISQNGGTQGYAEAVKDRFTISRDNTNKVVALQMNSLKPEDTAAYYCAADGDASDISYAPPRDYEYDYWGQGTQVTVSS

- OD450, clone binding with PD-1 (PD-1 [1]): 2.31 OD450
- OD450, PD-L1 binding with PD-1 (PD-1 [2]): 2.48 OD450
B11: NB200 (VHH)
VHH: B10 VHH with Q5V, R19T, S28T, T57S, I105R, D116E

- OD450, clone binding with PD-1 (PD-1 [1]): 2.65 OD450
- OD450, PD-L1 binding with PD-1 (PD-1 [2]): 2.24 OD450
B12: NB192 (VHH)
VHH: EVQLVESGGGLVQAGGSLRLSCAASGRTFNGYGMGWFRQAPGKEREFVAAISWRDSSKYYADSVRDRFTASRDNAKNTVYLQMNSLKPEDTAVYYCRPYSDYVTYDPYDYDAWGQGTQVTVSS

- OD450, clone binding with PD-1 (PD-1 [1]): 3.05 OD450
- OD450, PD-L1 binding with PD-1 (PD-1 [2]): 2.17 OD450
B13: NB172 (VHH)
VHH: EVQLVESGGGLVQAGGSLRLSCTASGDTRLASAMGWYRQAPGKERELVAVITNSGLTHYADSVEGRFTISRDSAKNTVYLQMNSLKPEDTAVYYCNAGAPPPGGLGYDESDYWDQGTQVTVSS

- OD450, clone binding with PD-1 (PD-1 [1]): 3.04 OD450
- OD450, PD-L1 binding with PD-1 (PD-1 [2]): 0.723 OD450
B14: NB202 (VHH)
VHH: B13 VHH with L4V, V50A, H58Y, D114G

- ELISA (OD) [3]: 2.06 OD and 2.09 OD and 2.29 OD
- ELISA (OD) (PD-1 [4]): 2.17 OD and 2.13 OD and 2.1 OD
- ELISA (OD) [5]: 2.07 OD and 2.08 OD and 1.95 OD
- OD450, clone binding with PD-1 (PD-1 [1]): 3.08 OD450
- OD450, PD-L1 binding with PD-1 (PD-1 [2]): 0.213 OD450
B15: NB182 (Fc fusion, not shown: a dimerising Fc or GST)
heavy: QVQLVESGGGLVQAGGSLRLSCAASGDTSFISAAGWYRQAPGKERELVAAITNTGITYYPDSVKGRFTISRDNAKNTVYLQMNNLKPEDTAVYYCNAGAPPPGGLGYDESDYWGQGTQVTVSS

- OD450, clone binding with PD-1 (PD-1 [1]): 2.66 OD450
- OD450, PD-L1 binding with PD-1 (PD-1 [2]): 2.27 OD450
B16: NB197 (VHH)
VHH: QVQLQESGGGLVQPGGSLRLSCAASGFTLDDHSIGWFRQAPGKEREPVSCISTSDGRTYYEDSVKGRFTISRDKAKNTVYLQMDSLKPEDTAVYYCTTDVACYSDYDPSFRFWGQGTQVTVSS

- OD450, clone binding with PD-1 (PD-1 [1]): 2.62 OD450
- OD450, PD-L1 binding with PD-1 (PD-1 [2]): 2.32 OD450
B17: NB218 (VHH)
VHH: QLQLVESGGGLVQAGDSLRLSCAASGRTFSSIAMGWFRQAPGKEREFVAAISRSGGSAGYADSVKDRSTIVRDNTKNTVYLQMNSLKPEDTAVYFCAASDYDFCSTHGCYDYWGQGTQVTISS

- OD450, clone binding with PD-1 (PD-1 [1]): 2.71 OD450
- OD450, PD-L1 binding with PD-1 (PD-1 [2]): 2.21 OD450
B18: NB211 (VHH)
VHH: EVQVVETGGGLAQAGGSLRLSCAASGRTFSGYTVGWYRQSPGKEREFVAAISYSGGSTDYADSVKGRFTISRDNANNTVYLQMGSLKAEDTAVYYCNRVIRGTRDPSIYYVMDYWGKGTLVTVSS
